± gives the uncertainty stated by the source.
Assay: amyloid nucleation score (Sup35N fusion, yeast selection) (log enrichment); library NNK1; higher = more nucleation; inactive = no reads after selection
Procedure, shortened: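 The nucleation score is the DiMSum log enrichment of output over input reads, centred on the mode score of non-aggregating sequences. Only sequences with 100 or more input reads were scored, using Illumina sequencing of input and output plasmid inserts. Psi-negative yeast expressing Sup35N fused to peptides of 20 random codons were induced 24 hours with 100 μM copper sulfate and grown 7 days at 30°C on medium lacking adenine and uracil.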

## AAALRIIGHYMRALLTELLQ
  amyloid nucleation score: 0.687 ± 0.46

## AALWHFNFINRSFRTVGPAG
  amyloid nucleation score: -0.569 ± 0.38

## AAPRWSYEAASANAMLFVIL
  amyloid nucleation score: 2.89 ± 0.25

## ACFEFKLGTFRLGAALNYPG
  amyloid nucleation score: 1.03 ± 0.31

## ACLSNGKWKYPLGYESSLRR
  amyloid nucleation score: -0.968 ± 1.1

## ACNCHMWV
  amyloid nucleation score: 1.31 ± 0.59

## ACPDHMRV
  amyloid nucleation score: 1.33 ± 0.62

## ACRDVGHSVVLCKFKS
  amyloid nucleation score: -1.01 ± 1.4

## ADACVRFLRGYYFNGFPMRW
  amyloid nucleation score: 1.03 ± 0.9

## ADCGRSVLTKVKRCDTFFSG
  amyloid nucleation score: 0.023 ± 0.27

## ADDGAVLCRCEAGGTSWSVC
  amyloid nucleation score: inactive

## ADFVSFSSFYFWWHVVSLDT
  amyloid nucleation score: 0.238 ± 0.56

## ADILWARFLWMSEGIH
  amyloid nucleation score: 0.054 ± 0.23

## ADLRVFHYRYFGS
  amyloid nucleation score: -0.223 ± 0.49

## AEASKYVMYIKARCMQLMRS
  amyloid nucleation score: -0.931 ± 1.1

## AEKSFWHSSNPFIALPRTHR
  amyloid nucleation score: -1 ± 0.93

## AFCIFCSRLAEIAHLAF
  amyloid nucleation score: 7.133 ± 0.046

## AFCNVADCNIRGSWLVRLRR
  amyloid nucleation score: 1.21 ± 0.41

## AFCRCNNRKVEQLMNLCGVF
  amyloid nucleation score: -0.771 ± 0.49

## AFFPGNFWACGSFDFLWYWL
  amyloid nucleation score: 3.38 ± 0.083

## AFFYVVCFDVCKMSTMYLFG
  amyloid nucleation score: -2.44 ± 2.4

## AFHLTSSSLFLFSWNSWVAV
  amyloid nucleation score: 5.3 ± 0.082

## AFIKNLTLCLDWTHSGAVYM
  amyloid nucleation score: 7.24 ± 0.08

## AFKNAAGMRGMTWISSEVGA
  amyloid nucleation score: 0.145 ± 0.42

## AFLMMSTVAPTLWMIMPSYS
  amyloid nucleation score: 0.446 ± 0.48

## AFMSRVGLHW
  amyloid nucleation score: 0.691 ± 0.25

## AFNSFIGFHCPSDVWCMKRN
  amyloid nucleation score: 5.25 ± 0.051

## AFRTS
  amyloid nucleation score: -0.203 ± 0.43

## AFRYDRVWVGQQLFGQECRP
  amyloid nucleation score: 0.054 ± 0.46

## AFVEGRMNHPYSGTMLSRRG
  amyloid nucleation score: 0.418 ± 0.53

## AFYGVDFSSGRGLFSY
  amyloid nucleation score: -0.574 ± 1.1

## AGDTGFTHTYSCWIKQWFVF
  amyloid nucleation score: 0.705 ± 0.47

## AGECRYLLMSVDGYIGLNLV
  amyloid nucleation score: 1.07 ± 0.48

## AGHYLCGSITNLTA
  amyloid nucleation score: 0.721 ± 0.97

## AGLMTGATSLQLMKFCSLGG
  amyloid nucleation score: -0.729 ± 0.71

## AGNFVVPMDAE
  amyloid nucleation score: 1.62 ± 0.41

## AGSFFSYGQFVKFTVLYHSE
  amyloid nucleation score: -0.053 ± 0.6

## AGSGRGRGGCTSNRSDYSSG
  amyloid nucleation score: -0.849 ± 1

## AGVAGL
  amyloid nucleation score: -0.661 ± 0.4

## AGYFCL
  amyloid nucleation score: -0.449 ± 0.47

## AHFVRVDHNGGGLCMLGISR
  amyloid nucleation score: -1.21 ± 0.86

## AHGRHDLRWCLRSRDSMWRA
  amyloid nucleation score: 1.2 ± 0.53

## AHLEGYYHWHYSEFWSVVVK
  amyloid nucleation score: -0.437 ± 0.31

## AHLRCDREDIVESTSECGVG
  amyloid nucleation score: inactive

## AIFNLVSSL
  amyloid nucleation score: -0.792 ± 1

## AIRPSIR
  amyloid nucleation score: -0.318 ± 0.33

## AISYDTYYTGELSSLWSGLS
  amyloid nucleation score: 0.666 ± 0.57

## AIVYRQKLISQLYFARLLRH
  amyloid nucleation score: 0.063 ± 1.4

## AKCGICLFYGM
  amyloid nucleation score: -0.358 ± 0.36

## AKLMGCYMQRSICITRVPFL
  amyloid nucleation score: 0.702 ± 0.51

## ALCYWNSTVD
  amyloid nucleation score: -0.057 ± 0.41

## ALEWHGQTYSFRIEI
  amyloid nucleation score: 0.537 ± 0.36

## ALFGERPCCRC
  amyloid nucleation score: 0.158 ± 0.28

## ALGYIPPRRCMTGSPPSVPR
  amyloid nucleation score: 0.529 ± 0.84

## ALNFTYLVSSNKHRSED
  amyloid nucleation score: 5.12 ± 0.1

## ALQTPFSKNMEYCCNQ
  amyloid nucleation score: 0.222 ± 0.41

## ALRAP
  amyloid nucleation score: -0.383 ± 0.62

## ALSLVISCSGSWRKGRRFLS
  amyloid nucleation score: -0.53 ± 0.64

## ALWNLCCHLGDGTAADSTVY
  amyloid nucleation score: -0.46 ± 1.9

## ALYSDRDI
  amyloid nucleation score: 0.939 ± 0.29

## AMDMSADAGDSWNCGCQYSN
  amyloid nucleation score: inactive

## AMQKESRGTWGSVTAQVHGM
  amyloid nucleation score: 0.304 ± 0.59

## ANDMMRKDCTFDTSVFMESV
  amyloid nucleation score: -0.379 ± 0.26

## ANKLCSVKQQTPRLRWYMGS
  amyloid nucleation score: 0.856 ± 0.48

## ANLACACCCYP
  amyloid nucleation score: -0.146 ± 0.96

## ANLDYWRSSTFTEHMVGLNR
  amyloid nucleation score: -0.469 ± 1.2

## ANLKISSALDVVRHRRKYQY
  amyloid nucleation score: 0.014 ± 0.54

## ANSVIFDGRSKGLAKHTVSY
  amyloid nucleation score: -0.276 ± 0.65

## ANTNAFKHLNYILMVLVLQG
  amyloid nucleation score: inactive

## APEVNRLTCSYRSDRLKTS
  amyloid nucleation score: 0.095 ± 0.83

## APGWTVDTSPYSAGVCVVTP
  amyloid nucleation score: 0.099 ± 0.4

## APMHINLWRDGTNVGQDWVV
  amyloid nucleation score: 1.88 ± 0.69

## APQSRFNHEYFFENIRRVVV
  amyloid nucleation score: inactive

## APRAAN
  amyloid nucleation score: -0.126 ± 0.41

## APSNNFCNNGLMFRYVRPGD
  amyloid nucleation score: 2.81 ± 0.21

## APSTDGMNMPTNGDRTPTLW
  amyloid nucleation score: 0.245 ± 0.42

## APTRACSNGDMLREE
  amyloid nucleation score: 1.35 ± 0.51

## AQAVLQLETRTIKIYRDGPK
  amyloid nucleation score: -1.08 ± 2.7

## AQKCPALYRLMNMPEKEKVG
  amyloid nucleation score: 0.18 ± 0.43

## AQNLDPQWWCLVRCDCYPL
  amyloid nucleation score: -0.49 ± 0.65

## ARITMYLCFNRLLVGKVCSG
  amyloid nucleation score: -0.176 ± 1.1

## ARLSL
  amyloid nucleation score: 0.157 ± 0.64

## ARQGASLGVK
  amyloid nucleation score: -1.11 ± 1.5

## ARVPSKYRVEVHGRKKAWRG
  amyloid nucleation score: -0.814 ± 0.6

## ARWWVRLEYC
  amyloid nucleation score: 0.523 ± 0.29

## ASCVKYVW
  amyloid nucleation score: 1.31 ± 0.66

Source: the supplement of paper PMC12042874
